{
  "source": "patent US20060024314A1",
  "about": "“Antibodies and cyclic peptides which bind CEA (carcinoembryonic antigens) and their use as cancer therapeutics” (priority 1998, published 2006)",
  "molecules": {"B1": {"name": "cyclized peptide H-CGNRQIIC-OH (subdomain 2) (peptide)", "peptide": "H-CGNRQIIC-OH", "modifications": "disulfide 1-8", "SMILES": "CC[C@H](C)[C@@H]1NC(=O)[C@H](CCC(N)=O)NC(=O)[C@H](CCCNC(=N)N)NC(=O)[C@H](CC(N)=O)NC(=O)CNC(=O)[C@@H](N)CSSC[C@@H](C(=O)O)NC(=O)[C@H]([C@@H](C)CC)NC1=O"}, "B2": {"name": "cyclized peptide H-CQNDTGC-OH (subdomain 3) (peptide)", "peptide": "H-CQNDTGC-OH", "modifications": "disulfide 1-7", "SMILES": "C[C@@H](O)[C@@H]1NC(=O)[C@H](CC(=O)O)NC(=O)[C@H](CC(N)=O)NC(=O)[C@H](CCC(N)=O)NC(=O)[C@@H](N)CSSC[C@@H](C(=O)O)NC(=O)CNC1=O"}, "B3": {"name": "cyclized peptide H-CGYSWYKC-OH (subdomain 1) (peptide)", "peptide": "H-CGYSWYKC-OH", "modifications": "disulfide 1-8", "SMILES": "NCCCC[C@@H]1NC(=O)[C@H](Cc2ccc(O)cc2)NC(=O)[C@H](Cc2c[nH]c3ccccc23)NC(=O)[C@H](CO)NC(=O)[C@H](Cc2ccc(O)cc2)NC(=O)CNC(=O)[C@@H](N)CSSC[C@@H](C(=O)O)NC1=O"}},
  "key": {"[1]": {"target": "CEA double mutant Q44R+I46V (human) (UniProt P06731)", "experiment": "cell-based or functional assay"}, "[2]": {"target": "CEA mutant Q80R (human) (UniProt P06731)", "experiment": "cell-based or functional assay"}, "[3]": {"target": "CEA mutant D82N (human) (UniProt P06731)", "experiment": "cell-based or functional assay"}, "[4]": {"tested_on": "CEA-mediated intercellular adhesion", "settings": "from references (29) and (16); cited from earlier work"}, "[5]": {"target": "T1, human carcinoembryonic antigen (CEA), wild type (human, UniProt P06731 35-685, GPI membrane anchor)", "T1 sequence (looked up)": "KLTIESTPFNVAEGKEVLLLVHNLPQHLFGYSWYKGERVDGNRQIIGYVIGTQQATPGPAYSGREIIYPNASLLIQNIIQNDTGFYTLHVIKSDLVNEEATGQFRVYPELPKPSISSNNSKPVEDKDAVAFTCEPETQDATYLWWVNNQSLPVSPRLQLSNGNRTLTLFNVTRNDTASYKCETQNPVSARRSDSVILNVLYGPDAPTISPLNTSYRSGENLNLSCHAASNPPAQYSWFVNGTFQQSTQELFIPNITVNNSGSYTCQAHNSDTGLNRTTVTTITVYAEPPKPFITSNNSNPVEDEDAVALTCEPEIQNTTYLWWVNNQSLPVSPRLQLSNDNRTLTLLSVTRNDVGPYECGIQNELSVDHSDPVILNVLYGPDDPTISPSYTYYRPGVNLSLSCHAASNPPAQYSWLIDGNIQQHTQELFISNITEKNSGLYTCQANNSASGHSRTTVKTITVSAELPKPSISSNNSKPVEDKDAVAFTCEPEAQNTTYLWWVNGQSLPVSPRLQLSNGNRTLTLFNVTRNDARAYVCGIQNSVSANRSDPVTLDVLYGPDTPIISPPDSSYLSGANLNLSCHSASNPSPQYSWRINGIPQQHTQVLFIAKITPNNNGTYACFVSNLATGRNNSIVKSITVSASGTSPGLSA", "experiment": "cell-based or functional assay"}},
  "note": "Bridge positions count the residues as written; N and C are the ends.",
  "data": [
    {"molecule": "CEA double mutant Q44R+I46V (from UniProt P06731 35-702)", "values": [
      {"measurement": "degree of differentiation of L6 transfectants", "setting": "[1]", "result": 100, "unit": "%"}
    ]},
    {"molecule": "CEA mutant Q80R (from UniProt P06731 35-702)", "values": [
      {"measurement": "degree of differentiation of L6 transfectants", "setting": "[2]", "result": 81, "unit": "%"}
    ]},
    {"molecule": "CEA mutant D82N (from UniProt P06731 35-702)", "values": [
      {"measurement": "degree of differentiation of L6 transfectants", "setting": "[3]", "result": 100, "unit": "%"}
    ]},
    {"molecule": "H-CQNDTGC-OH (disulfide 1-7; SMILES C[C@@H](O)[C@@H]1NC(=O)[C@H](CC(=O)O)NC(=O)[C@H](CC(N)=O)NC(=O)[C@H](CCC(N)=O)NC(=O)[C@@H](N)CSSC[C@@H](C(=O)O)NC(=O)CNC1=O) [cyclized peptide QNDTG, cyclized peptide representing subdomain 3 of the CEA N domain]", "values": [
      {"measurement": "inhibition of CEA-mediated intercellular adhesion", "setting": "[4]", "result": "effective in inhibiting CEA-mediated intercellular adhesion"}
    ]},
    {"molecule": "B1", "values": [
      {"measurement": "% fusion of L6(CEA) cells (release of the myogenic differentiation block), peptide at 100 µM", "setting": "[5]", "result": 28, "unit": "%"}
    ]},
    {"molecule": "B2", "values": [
      {"measurement": "% fusion of L6(CEA) cells (release of the myogenic differentiation block), peptide at 100 µM", "setting": "[5]", "result": 36, "unit": "%"}
    ]},
    {"molecule": "B3", "values": [
      {"measurement": "% fusion of L6(CEA) cells (release of the myogenic differentiation block), peptide at 100 µM", "setting": "[5]", "result": 18, "unit": "%"}
    ]}
  ]
}
